# B1: SNAP91: recombinant full-length SNAP91 (SEQ ID NO: 4) produced in E. coli (protein, listed as Homo sapiens)
# chain: MSGQTLTDRIAAAQYSVTGSAVARAVCKATTHEVMGPKKKHLDYLIQATNETNVNIPQMADTLFERATNSSWVVVFKALVTTHHLMVHGNERFIQYLASRNTLFNLSNFLDKSGSHGYDMSTFIRRYSRYLNEKAFSYRQMAFDFARVKKGADGVMRTMAPEKLLKSMPILQGQIDALLEFDVHPNELTNGVINAAFMLLFKDLIKLFACYNDGVINLLEKFFEMKKGQCKDALEIYKRFLTRMTRVSEFLKVAEQVGIDKGDIPDLTQAPSSLMETLEQHLNTLEGKKPGNNEGSGAPSPLSKSSPATTVTSPNSTPAKTIDTSPPVDLFATASAAVPVSTSKPSSDLLDLQPDFSSGGAAAAAAPAPPPPAGGATAWGDLLGEDSLAALSSVPSEAQISDPFAPEPTPPTTTAEIATASASASTTTTVTAVTAEVDLFGDAFAASPGEAPAASEGAAAPATPTPVAAALDACSGNDPFAPSEGSAEAAPELDLFAMKPPETSVPVVTPTASTAPPVPATAPSPAPAVAAAAAATTAATAAATTTTTTSAATATTAPPALDIFGDLFESTPEVAAAPKPDAAPSIDLFSTDAFSSPPQGASPVPESSLTADLLSVDAFAAPSPATTASPAKVDSSGVIDLFGDAFGSSASEPQPASQAASSSSASADLLAGFGGSFMAPSPSPVTPAQNNLLQPNFEAAFGTTPSTSSSSSFDPSVFDGLGDLLMPTMAPAGQPAPVSMVPPSPAMAASKALGSDLDSSLASLVGNLGISGTTTKKGDLQWNAGEKKLTGGANWQPKVAPATWSAGVPPSAPLQGAVPPTSSVPPVAGAPSVGQPGAGFGMPPAGTGMPMMPQQPVMFAQPMMRPPFGAAAVPGTQLSPSPTPASQSPKKPPAKDPLADLNIKDFL
# System: T-cells in PBMCs from MS patients and healthy controls
# Assay: FluoroSpot with full-length recombinant antigens (52 patients, 24 controls), with ROC analysis
# Assay type: cell-based, human
# Procedure: FIGS. 8A-8D. IFNγ/IL-22/IL-17 Fluorospot assay comparing T-cell activation in multiple sclerosis (MS)-patients and healthy controls when stimulated with full-length recombinant antigens (FABP7, PROK2, RTN3, SNAP91). Fifty-two Multiple Sclerosis patients and 24 healthy controls were tested for T-cell activation towards recombinant full-length versions of the autoantigens in a FluoroSpot assay. FIG. 8A: FABP7 isoform 2 (SEQ ID NO:1). FIG. 8B: PROK2 (SEQ ID NO:2). FIG. 8C: RTN3 SEQ ID NO:3. FIG. 8D: SNAP91 SEQ ID NO: 4. P-values calculated using Mann-Whitney test. Staples denote mean and C195%.
# FIGS. 9A-9E. ROC-curves for the full-length antigens, Sensitivity and specificity when used as a diagnostic marker. Individually, the four antigens perform similarly as diagnostic markers for disease, all reaching a sensitivity of ˜50% with a specificity of 95%. FIG. 9A: FABP7 isoform 2. FIG. 9B: PROK2. FIG. 9C: RTN3. FIG. 9D: SNAP91. FIG. 9E: Using a combination of all four antigens as a diagnostic test achieves higher sensitivity and specificity. Specifically, utilizing the ratio of IL-17 divided by the square root of IFNγ response towards the mean response to the four antigens achieves a sensitivity of 70% with a specificity of >95%.
# The full-length proteins can also be used in a similar way, see FIG. 9A-D. Utilizing all four full-length antigens, using each individual's average response to the four, increases the sensitivity and specificity further (FIG. 9E). Combining different readouts, such as analyzing the ratio between IL-17 and IFNγ, can increase the sensitivity of the test further (FIG. 9E, Table 2).
# Recombinant full-length versions of the antigens FABP7 (SEQ ID NO: 1), PROK2 (SEQ ID NO: 2), RTN3 (SEQ ID NO: 3), SNAP91 (SEQ ID NO: 4) were produced in E. coli in house according to standard recombinant protein production protocols and purified via his-tag purification. 52 patients and 24 controls were tested for reactivity towards the antigens in an IFNγ/IL17/IL22 FluoroSpot assay as previously described.
# A second, larger, cohort was collected in order to test the full length antigens. In this cohort, 52 patients and 24 healthy controls were included. The inclusion/exclusion criteria (table 5) as well as the sampling and PBMCs isolation were the same.
# The antigens (FABP7, PROK2, RTN3 and SNAP91) picked out from the screening of PrESTs described in Example 1 and 2 were selected for further testing on the full-length versions of the protein. The full-length antigens were produced by transforming plasmids encoding the antigen and a […] into Escherichia coli. After growth, the bacteria were lysed and the protein purified from the supernatant of the bacterial lysis via 6× histidine-tag purification on an immobilized metal affinity chromatography-column. The antigens were subsequently coupled to beads and endotoxin-washed as previously described.
# The FluoroSpot assay was performed under sterile conditions in a cell culture hood. The cells were thawed in a water bath at 37° C. and washed with cRPMI (RPMI 1640 medium, Sigma Aldrich, containing 10% fetal calf serum, 1% 200 mM L-Glutamine, 1% 10,000 U/ml Penicillin-10 mg/ml Streptomycin). The cells were counted manually using a light-microscope (Nikon TMS-F, Nikon, Japan) and subsequently diluted in cRPMI to a concentration of 2.5×10^6 cells/ml. The FluoroSpot plate (Human IFNγ/IL-22/IL-17A FluoroSpot kit, pre-coated, Mabtech, Sweden) was washed with PBS and then blocked with cRPMI for 30 min at room temperature. The blocking cRPMI was then discarded and 100 μl fresh cRPMI was added to each well of the FluoroSpot plate. Antigen (3×10^6 beads) was added to each well in duplicates according to a specific layout. In accordance to the manufacturer's protocol, anti-CD3 was used as a positive control. Both uncoupled beads and media without stimuli was used as negative controls. PBMCs (250,000 cells) in 100 μl cRPMI were added to each well (125,000 cells for the anti-CD3). […]
molecule,measurement,value
B1,"reactivity of MS patients PBMCs versus controls, IFNγ",apart from IFNγ for SNAP91
same,"reactivity of MS patients PBMCs versus controls, IL17 and IL22",significantly higher reactivity

# Source: patent US20240158455A1, “MULTIPLE SCLEROSIS ASSOCIATED AUTOANTIGENS, AND USE THEREOF IN THERAPY AND DIAGNOSIS” (NEOGAP Therapeutics AB, priority 2017, published 2024)
